Laboratory results from patent US10973762B2, “Active-targeting-type polymer derivative, composition containing said polymer derivative, and uses of said polymer derivative and said composition” (Nippon Kayaku Kabushiki Kaisha, priority 2016, dated 2021).

Assays:
[1] = biological target: T1, integrin αVβ3 (Mus musculus, UniProt O54890+P43406); assay: Integrin binding assay (inhibition of biotinylated vitronectin binding); settings: dilution series, absorbance at 450 nm
T1 construct: purchased R&D Systems, Inc
T1 sequence (P43406 31-988 limits assumed): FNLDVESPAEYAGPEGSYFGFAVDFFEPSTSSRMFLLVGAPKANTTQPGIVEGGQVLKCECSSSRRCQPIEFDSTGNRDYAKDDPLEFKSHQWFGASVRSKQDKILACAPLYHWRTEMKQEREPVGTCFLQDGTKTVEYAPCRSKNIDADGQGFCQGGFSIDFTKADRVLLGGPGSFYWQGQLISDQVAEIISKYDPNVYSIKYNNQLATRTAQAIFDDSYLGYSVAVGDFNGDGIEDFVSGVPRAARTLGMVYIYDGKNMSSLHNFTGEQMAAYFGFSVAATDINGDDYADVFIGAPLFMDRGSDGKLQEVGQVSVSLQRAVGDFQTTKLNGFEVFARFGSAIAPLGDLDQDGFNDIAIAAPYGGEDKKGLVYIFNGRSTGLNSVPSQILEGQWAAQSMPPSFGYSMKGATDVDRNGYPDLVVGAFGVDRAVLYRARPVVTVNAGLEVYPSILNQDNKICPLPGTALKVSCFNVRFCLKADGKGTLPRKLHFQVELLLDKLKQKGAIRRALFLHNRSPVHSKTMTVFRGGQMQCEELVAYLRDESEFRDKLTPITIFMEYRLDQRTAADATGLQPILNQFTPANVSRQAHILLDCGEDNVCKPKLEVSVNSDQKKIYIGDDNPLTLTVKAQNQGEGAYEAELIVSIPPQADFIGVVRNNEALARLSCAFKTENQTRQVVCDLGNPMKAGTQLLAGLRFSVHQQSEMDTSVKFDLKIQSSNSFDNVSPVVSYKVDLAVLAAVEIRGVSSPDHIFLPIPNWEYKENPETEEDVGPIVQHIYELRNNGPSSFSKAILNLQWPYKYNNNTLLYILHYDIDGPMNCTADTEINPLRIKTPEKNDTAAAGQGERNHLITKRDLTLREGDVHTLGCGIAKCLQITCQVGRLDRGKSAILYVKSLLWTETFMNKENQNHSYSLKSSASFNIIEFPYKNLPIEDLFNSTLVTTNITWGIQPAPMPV
T1 sequence (O54890 26-717 limits assumed): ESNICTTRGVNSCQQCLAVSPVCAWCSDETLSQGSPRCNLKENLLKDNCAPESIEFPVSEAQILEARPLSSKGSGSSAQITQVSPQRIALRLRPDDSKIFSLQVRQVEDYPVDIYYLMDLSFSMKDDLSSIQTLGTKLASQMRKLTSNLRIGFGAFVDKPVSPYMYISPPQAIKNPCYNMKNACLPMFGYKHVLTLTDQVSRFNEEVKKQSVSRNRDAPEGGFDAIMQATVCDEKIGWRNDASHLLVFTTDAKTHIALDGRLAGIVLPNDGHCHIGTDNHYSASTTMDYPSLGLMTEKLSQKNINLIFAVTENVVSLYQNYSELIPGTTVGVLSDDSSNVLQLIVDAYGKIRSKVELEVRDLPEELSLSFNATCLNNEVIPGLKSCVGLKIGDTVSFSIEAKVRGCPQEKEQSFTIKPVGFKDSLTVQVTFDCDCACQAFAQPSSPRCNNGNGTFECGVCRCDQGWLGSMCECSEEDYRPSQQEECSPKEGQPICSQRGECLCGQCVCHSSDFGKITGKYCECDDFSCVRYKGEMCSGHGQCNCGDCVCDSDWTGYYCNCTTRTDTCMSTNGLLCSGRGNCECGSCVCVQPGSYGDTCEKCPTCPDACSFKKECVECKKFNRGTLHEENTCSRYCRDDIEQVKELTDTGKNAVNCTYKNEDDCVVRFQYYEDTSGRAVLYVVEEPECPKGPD
Procedure: 100 μL each of 1 μg/mL Recombinant Mouse Integrin alpha V beta 3 Protein (R&D Systems, Inc.) produced with PBS(−) was added to a 96-well Costar high capacity binding plate, and the plate was left to stand overnight at 4° C. to thereby bind integrin αVβ3 to the bottom face of the wells. Subsequently, integrin αVβ3 in the wells was removed by suctioning, and 200 μL of a Blocking/Binding buffer (50 mM Tris HCl at pH 7.4, 100 mM NaCl, 2 mM CaCl2, 1 mM MgCl2, 1 mM MnCl2, 1% BSA) was added to each well. Blocking was performed at an interval of one hour at room temperature.
100 μL of biotinylated vitronectin (1 μg/mL) obtained by biotinylated human recombinant vitronectin (Wako Pure Chemical Industries, Ltd.) was added in advance into each well using Biotin Labeling Kit-NH2 (Dojindo Molecular Technologies, Inc.), and the plate was left to stand at room temperature for 3 hours. Subsequently, the wells were washed three times using 200 μL of Blocking/Binding buffer, and 100 μL of streptavidin-HRP (GE Healthcare) diluted 10,000 times with the Blocking/Binding buffer was added to each well. The mixture was left to stand for one hour at room temperature. The wells were washed two times using 200 μL of the Blocking/Binding buffer. […]
Within 30 minutes after the addition, the absorbance at 450 nm was measured, and the binding ratio of biotinylated vitronectin to integrin αVβ3 was calculated.

[2] = Test Example 4: tissue distribution in kidney (fluorescence of sections); type: in vivo, nude mice; settings: i.v. 5 mg/kg in terms of fluorescent substance
Procedure: (§1) A suspension of cultured cancer cell human glioma U87MG was subcutaneously transplanted on the dorsal sides of nude mice using an injection needle-attached syringe. Example 7, Comparative Example 2, and Comparative Example 3 were dissolved in a 5% glucose injectable solution, and each of the solutions was intravenously administered a single time in an amount of 5 mg/kg in terms of 2-(2-aminoethoxy)-9-(diethylamino)-5H-benzo[a]phenoxazin-5-one.
(§2) After one hour and after 24 hours from the administration, the mice were exsanguinated under isoflurane anesthesia, and frozen embedded sections of extracted tumor and kidney were produced. Fluorescence derived from 2-(2-aminoethoxy)-9-(diethylamino)-5H-benzo[a]phenoxazin-5-one in the administered composition was observed.
(§3) Furthermore, based on those images, the luminance was calculated using Image-Pro Premier (Media Cybernetics, Inc.), and the values of luminance of tumor tissue sections are shown in FIG. 9, while the values of luminance of kidney tissue sections are shown in FIG. 11.

[3] = Average particle size, single nanoparticle size analyzer IG-1000; type: physicochemical
Procedure: The measurement of the average particle size of the compositions including block copolymers of Examples 3 to 10 and Comparative Examples 1 to 6 was carried out using a single nanoparticle size analyzer, IG-1000, manufactured by Shimadzu Corp. (measurement temperature: 25° C., light intensity at t=0: 100 to 200).
Regarding a sample for measuring the average particle size, a solution produced to have a concentration of 2 mg/mL or 5 mg/mL in terms of the composition weight and filtered through a 0.45-μm membrane filter, was used.

[4] = tested on: human glioma U87MG; assay: Test Example 4: tissue distribution in tumor (fluorescence of sections); type: in vivo, nude mice; settings: one hour after i.v. administration, 5 mg/kg in terms of fluorescent substance
Procedure: as §1, §2, §3

[5] = Test for drug releasability into phosphate buffer solution; type: physicochemical; settings: phosphate buffer solution pH 7.4, 37° C., 6 hours, 1.0 mg/mL, absence of enzyme
Procedure: Example 7, Example 8, and Comparative Example 3 were respectively dissolved in a phosphate buffer solution (pH 7.4) at a concentration of 1.0 mg/mL in terms of the composition weight, and the solutions were left to stand at a constant temperature of 37° C. The amount of 7-ethyl-10-hydroxycamptothecin (EHC) released was measured over time by HPLC, and the proportion of the amount of EHC released with respect to the total amount of EHC in the compound used was determined.

| Substance | inhibition of binding of vitronectin and integrin αVβ3 [1] | distribution of fluorescence in kidney [2] | average particle size ([3]; 5 mg/mL) [nm] | average particle size ([3]; 2 mg/mL) [nm] | distribution of fluorescence in tumor [4] | EHC release (proportion of EHC released with respect to total EHC) [5] [%] |
| --- | --- | --- | --- | --- | --- | --- |
| 4-phenyl-1-butanol-bonded and 2-(2-aminoethoxy)-9-(diethylamino)-5H-benzo[a]phenoxazin-5-one-bonded product of polyethylene glycol (10 kilodaltons)-polyglutamic acid (21.0 polymerizations) block copolymer [Comparative Example 1] | not recognized |  |  |  |  |  |
| 7-ethyl-10-hydroxycamptothecin (EHC)-bonded and 2-(2-aminoethoxy)-9-(diethylamino)-5H-benzo[a]phenoxazin-5-one-bonded product of polyethylene glycol (12 kilodaltons)-polyglutamic acid (22.0 polymerizations) block copolymer [Comparative Example 2] |  | fluorescence was not recognized in areas other than in the blood vessels | 23 |  |  |  |
| 7-ethyl-10-hydroxycamptothecin (EHC)-bonded and 2-(2-aminoethoxy)-9-(diethylamino)-5H-benzo[a]phenoxazin-5-one-bonded product of polyethylene glycol (2 kilodaltons)-polyglutamic acid (7.59 polymerizations) block copolymer [Comparative Example 3] |  | fluorescence was observed in the blood vessels and the renal tubules |  | 13 | penetrated into the entire tumor compared to Comparative Example 2 | 61 |
